“And” between values parts separate entries of the source, which are not always exact repeats. Equal values may be shown once. Read-outs that look alike come from different tables or passages of the source. Square brackets hold non-standard residues; d marks the D form. Ends that are not written are not given here. * marks the point of attachment. MCA = alpha-methylhydrocinnamic acid (2-methyl-3-phenylpropanoic acid); PLA = 3-phenyllactic acid (2-hydroxy-3-phenylpropanoic acid); PhLac = O=C(O)[C@@H](O)Cc1ccccc1; Carboxymethyl = O=C(O)C*
Experiments:
glucagon receptor [1] = biological target: T1, glucagon receptor (UniProt P47871 26-477, limits assumed); experiment: receptor binding (named so for the same values in Table I), method not described
T1 construct: whole, on cells; also called GR; Glucagon
T1 sequence (P47871 26-477 limits assumed): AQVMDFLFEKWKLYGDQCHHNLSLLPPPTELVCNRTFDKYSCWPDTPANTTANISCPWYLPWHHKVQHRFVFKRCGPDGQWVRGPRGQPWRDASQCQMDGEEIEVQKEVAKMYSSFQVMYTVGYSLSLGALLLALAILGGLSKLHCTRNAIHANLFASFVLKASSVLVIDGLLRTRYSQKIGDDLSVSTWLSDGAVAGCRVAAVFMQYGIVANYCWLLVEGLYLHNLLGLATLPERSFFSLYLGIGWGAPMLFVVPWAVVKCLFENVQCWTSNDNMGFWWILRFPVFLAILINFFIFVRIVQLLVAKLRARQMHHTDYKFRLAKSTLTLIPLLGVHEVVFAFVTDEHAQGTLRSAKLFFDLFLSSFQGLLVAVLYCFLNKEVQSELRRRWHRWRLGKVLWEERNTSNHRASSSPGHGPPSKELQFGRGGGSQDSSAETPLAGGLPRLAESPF

glucagon receptor [2] = biological target: T1, glucagon receptor; experiment: cell-based or functional assay
glucagon receptor [3] = biological target: T1, glucagon receptor; experiment: cell-based or functional assay; remark: listed apart in the source
glucagon receptor [4] = biological target: T1, glucagon receptor; experiment: receptor binding, method not described
glucagon receptor [5] = biological target: T1, glucagon receptor; experiment: receptor binding, method not described; remark: listed apart in the source
glucagon receptor [6] = biological target: T1, glucagon receptor; experiment: cell-based or functional assay; remark: listed apart in the source
glucagon receptor [7] = biological target: T1, glucagon receptor; experiment: receptor binding, method not described; remark: listed apart in the source
glucagon receptor [8] = biological target: T1, glucagon receptor; experiment: cell-based or functional assay; remark: listed apart in the source

## LTFTSEYSKYLDSRRAQDFVQWLMNT-NH2 (also called peptide no) [[Leu^4, Glu^9]Glucagon(aa4-29)-NH2]
Glucagon receptor [1]
  IC50: 36.4 nM

## FTSDYSKYLDSRRAQDFVQWLMNT-NH2 (also called peptide no) [Glucagon(aa6-29)-NH2]
Glucagon receptor [1]
  IC50: 1890 nM
Glucagon receptor [2]
  cAMP IC50: 346 nM
  cAMP pA2: 6.94
Glucagon receptor [3]
  cAMP (I/A)50: 1730
  cAMP pA2: 6.94
Glucagon receptor [4]
  IC50: 1670 nM

B1: [(CSA-1)^9]Glucagon(aa6-29)-NH2 (peptide)
peptide: FTSC(Carboxymethyl)YSKYLDSRRAQDFVQWLMNT-NH2
modifications: N-terminus assumed
SMILES: CSCC[C@H](NC(=O)[C@H](CC(C)C)NC(=O)[C@H](Cc1c[nH]c2ccccc12)NC(=O)[C@H](CCC(N)=O)NC(=O)[C@@H](NC(=O)[C@H](Cc1ccccc1)NC(=O)[C@H](CC(=O)O)NC(=O)[C@H](CCC(N)=O)NC(=O)[C@H](C)NC(=O)[C@H](CCCNC(=N)N)NC(=O)[C@H](CCCNC(=N)N)NC(=O)[C@H](CO)NC(=O)[C@H](CC(=O)O)NC(=O)[C@H](CC(C)C)NC(=O)[C@H](Cc1ccc(O)cc1)NC(=O)[C@H](CCCCN)NC(=O)[C@H](CO)NC(=O)[C@H](Cc1ccc(O)cc1)NC(=O)[C@H](CSCC(=O)O)NC(=O)[C@H](CO)NC(=O)[C@@H](NC(=O)[C@@H](N)Cc1ccccc1)[C@@H](C)O)C(C)C)C(=O)N[C@@H](CC(N)=O)C(=O)N[C@H](C(N)=O)[C@@H](C)O
notes: also called [C^9(SCH2COOH)]Glucagon(aa6-29)-NH2; peptide no
Glucagon receptor [1]
  IC50: 107 nM
Glucagon receptor [2]
  cAMP IC50: 101 nM
  cAMP pA2: 6.68
Glucagon receptor [3]
  cAMP (I/A)50: 506
  cAMP pA2: 6.68
Glucagon receptor [4]
  IC50: 107 nM

B2: [(CSA-2)^9]Glucagon(aa6-29)-NH2 (peptide)
peptide: FTSCYSKYLDSRRAQDFVQWLMNT
HELM: PEPTIDE1{F.T.S.[O=C(O)CCSC[C@H](N[*:1])C(=O)[*:2]].Y.S.K.Y.L.D.S.R.R.A.Q.D.F.V.Q.W.L.M.N.T.[am]}$$$$V2.0; N-terminus assumed
SMILES: CSCC[C@H](NC(=O)[C@H](CC(C)C)NC(=O)[C@H](Cc1c[nH]c2ccccc12)NC(=O)[C@H](CCC(N)=O)NC(=O)[C@@H](NC(=O)[C@H](Cc1ccccc1)NC(=O)[C@H](CC(=O)O)NC(=O)[C@H](CCC(N)=O)NC(=O)[C@H](C)NC(=O)[C@H](CCCNC(=N)N)NC(=O)[C@H](CCCNC(=N)N)NC(=O)[C@H](CO)NC(=O)[C@H](CC(=O)O)NC(=O)[C@H](CC(C)C)NC(=O)[C@H](Cc1ccc(O)cc1)NC(=O)[C@H](CCCCN)NC(=O)[C@H](CO)NC(=O)[C@H](Cc1ccc(O)cc1)NC(=O)[C@H](CSCCC(=O)O)NC(=O)[C@H](CO)NC(=O)[C@@H](NC(=O)[C@@H](N)Cc1ccccc1)[C@@H](C)O)C(C)C)C(=O)N[C@@H](CC(N)=O)C(=O)N[C@H](C(N)=O)[C@@H](C)O
notes: also called [C^9(SCH2CH2COOH)]Glucagon(aa6-29)-NH2; peptide no
Glucagon receptor [1]
  IC50: 146 nM
Glucagon receptor [2]
  cAMP IC50: 116 nM
  cAMP pA2: 6.64
Glucagon receptor [3]
  cAMP (I/A)50: 580
  cAMP pA2: 6.64
Glucagon receptor [4]
  IC50: 146 nM

B3: [Lys^9]Glucagon(aa6-29)-NH2 (peptide)
peptide: FTSKYSKYLDSRRAQDFVQWLMNT-NH2
notes: also called [K^9]Glucagon(aa6-29)-NH2; peptide no
Glucagon receptor [1]
  IC50: 5780 nM
Glucagon receptor [2]
  cAMP IC50: 398 nM
  cAMP pA2: 6.58
Glucagon receptor [3]
  cAMP (I/A)50: 1990
  cAMP pA2: 6.58
Glucagon receptor [4]
  IC50: 3240 nM

## SQGTFTSEYSKYLDSRRAQDFVQFLLNT-NH2 [[desHis^1, Glu^9, Phe^25, Leu^27]Glucagon-NH2]
Glucagon receptor [5]
  IC50: 12.6 nM
Glucagon receptor [6]
  cAMP Induction EC50: 81 nM

## SQLTFTSEYSKYLDSRRAQDFVQWLMNT-NH2 (also called Cmpd) [[desHis^1, Leu^4, Glu^9]Glucagon-NH2]
Glucagon receptor [5]
  IC50: 36.9 nM
Glucagon receptor [6]
  cAMP Induction EC50: 318 nM
  cAMP Inhibition IC50: 102 nM

## SQGTTSDYSKYLDSRRAQDFVQWLMNT-NH2 (also called Cmpd) [[desHis^1, desPhe^6]Glucagon-NH2]
Glucagon receptor [5]
  IC50: 130 nM
Glucagon receptor [6]
  cAMP Induction EC50: 1180 nM

B4: [desHis^1, Leu^4, hCys^9(SO3^-), Phe^25, Leu^27]Glucagon-NH2 (peptide)
peptide: SQLTFTSXYSKYLDSRRAQDFVQFLLNT
HELM: PEPTIDE1{S.Q.L.T.F.T.S.[O=C([C@H](CCS(=O)(=O)O)N[*:1])[*:2]].Y.S.K.Y.L.D.S.R.R.A.Q.D.F.V.Q.F.L.L.N.T.[am]}$$$$V2.0; N-terminus assumed
SMILES: CC(C)C[C@H](NC(=O)[C@H](Cc1ccc(O)cc1)NC(=O)[C@H](CCCCN)NC(=O)[C@H](CO)NC(=O)[C@H](Cc1ccc(O)cc1)NC(=O)[C@H](CCS(=O)(=O)O)NC(=O)[C@H](CO)NC(=O)[C@@H](NC(=O)[C@H](Cc1ccccc1)NC(=O)[C@@H](NC(=O)[C@H](CC(C)C)NC(=O)[C@H](CCC(N)=O)NC(=O)[C@@H](N)CO)[C@@H](C)O)[C@@H](C)O)C(=O)N[C@@H](CC(=O)O)C(=O)N[C@@H](CO)C(=O)N[C@@H](CCCNC(=N)N)C(=O)N[C@@H](CCCNC(=N)N)C(=O)N[C@@H](C)C(=O)N[C@@H](CCC(N)=O)C(=O)N[C@@H](CC(=O)O)C(=O)N[C@@H](Cc1ccccc1)C(=O)N[C@H](C(=O)N[C@@H](CCC(N)=O)C(=O)N[C@@H](Cc1ccccc1)C(=O)N[C@@H](CC(C)C)C(=O)N[C@@H](CC(C)C)C(=O)N[C@@H](CC(N)=O)C(=O)N[C@H](C(N)=O)[C@@H](C)O)C(C)C
Glucagon receptor [6]
  cAMP Induction EC50: 1610 nM
  cAMP Inhibition IC50: 4460 nM

B5: [hGlu^9]Glucagon(aa6-29)-NH2 (peptide)
peptide: FTSXYSKYLDSRRAQDFVQWLMNT
HELM: PEPTIDE1{F.T.S.[O=C(O)CCC[C@H](N[*:1])C(=O)[*:2]].Y.S.K.Y.L.D.S.R.R.A.Q.D.F.V.Q.W.L.M.N.T.[am]}$$$$V2.0; N-terminus assumed
SMILES: CSCC[C@H](NC(=O)[C@H](CC(C)C)NC(=O)[C@H](Cc1c[nH]c2ccccc12)NC(=O)[C@H](CCC(N)=O)NC(=O)[C@@H](NC(=O)[C@H](Cc1ccccc1)NC(=O)[C@H](CC(=O)O)NC(=O)[C@H](CCC(N)=O)NC(=O)[C@H](C)NC(=O)[C@H](CCCNC(=N)N)NC(=O)[C@H](CCCNC(=N)N)NC(=O)[C@H](CO)NC(=O)[C@H](CC(=O)O)NC(=O)[C@H](CC(C)C)NC(=O)[C@H](Cc1ccc(O)cc1)NC(=O)[C@H](CCCCN)NC(=O)[C@H](CO)NC(=O)[C@H](Cc1ccc(O)cc1)NC(=O)[C@H](CCCC(=O)O)NC(=O)[C@H](CO)NC(=O)[C@@H](NC(=O)[C@@H](N)Cc1ccccc1)[C@@H](C)O)C(C)C)C(=O)N[C@@H](CC(N)=O)C(=O)N[C@H](C(N)=O)[C@@H](C)O
notes: also called [hE^9]Glucagon(aa6-29)-NH2; peptide no
Glucagon receptor [1]
  IC50: 163 nM
Glucagon receptor [2]
  cAMP IC50: 472 nM
  cAMP pA2: 6.27
Glucagon receptor [3]
  cAMP (I/A)50: 2360
  cAMP pA2: 6.27
Glucagon receptor [4]
  IC50: 163 nM

## [MCA]TSEYSKYLDSRRAQDFVC(maleimido methoxyPEG 20 kDa)WLMNT-NH2 [[MCA6, E9, C24(20kDaPEG)]Glucagon(aa6-29)-NH2]
Glucagon receptor [7]
  IC50: 208 nM

## [PhLac]TC(maleimido methoxyPEG 20 kDa)EYSKYLDSRRAQDFVQWLMNT-NH2 [[PLA6, C8(20kDaPEG), E9]Glucagon(aa6-29)-NH2]
Glucagon receptor [8]
  IC50(nM) (cAMP, inhibit 0.2 mM Glucagon): 236 nM and 92 nM
Glucagon receptor [7]
  IC50: 303 nM

## [PhLac]TSEYC(maleimido methoxyPEG 20 kDa)KYLDSRRAQDFVQWLMNT-NH2 [[PLA6, E9, C11(20kDaPEG)]Glucagon(aa6-29)-NH2]
Glucagon receptor [8]
  IC50(nM) (cAMP, inhibit 0.2 mM Glucagon): 664 nM
Glucagon receptor [7]
  IC50: 776 nM

## [PhLac]TSEYSKYLDSRRAQDFVC(maleimido methoxyPEG 20 kDa)WLMNT-NH2 [[PLA6, E9, C24(20kDaPEG)]Glucagon(aa6-29)-NH2]
Glucagon receptor [8]
  IC50(nM) (cAMP, inhibit 0.2 mM Glucagon): 126 nM
Glucagon receptor [7]
  IC50: 90 nM

## C(PEG 1.2 kDa)FTSEYSKYLDSRRAQDFVQWLMNT-NH2 [[C5(1.2kDaPEG), E9]Glucagon(aa5-29)-NH2]
Glucagon receptor [8]
  IC50(nM) (cAMP, inhibit 0.2 mM Glucagon): 2280 nM
Glucagon receptor [7]
  IC50: 1080 nM

## C(PEG 5 kDa)FTSEYSKYLDSRRAQDFVQWLMNT-NH2 [[C5(5kDaPEG), E9]Glucagon(aa5-29)-NH2]
Glucagon receptor [8]
  IC50(nM) (cAMP, inhibit 0.2 mM Glucagon): 1610 nM
Glucagon receptor [7]
  IC50: 634 nM

## C(PEG 20 kDa)FTSEYSKYLDSRRAQDFVQWLMNT-NH2 [[C5(20kDaPEG), E9]Glucagon(aa5-29)-NH2]
Glucagon receptor [8]
  IC50(nM) (cAMP, inhibit 0.2 mM Glucagon): 976 nM
Glucagon receptor [7]
  IC50: 331 nM

## C(PEG 3.4 kDa)FTSEYSKYLDSRRAQDFVQWLMNT-NH2 (also: dimer: two chains joined by 3.4 kDa PEG at Cys5) [3.4kDaPEG-dimer[C5, E9]Glucagon(aa5-29)-NH2]
Glucagon receptor [8]
  IC50(nM) (cAMP, inhibit 0.2 mM Glucagon): 1340 nM
Glucagon receptor [7]
  IC50: 435 nM

## {PLA}-TC(PEG 1.2 kDa)EYSKYLDSRRAQDFVQWLMNT-NH2 [[PLA6, C8(1.2kDaPEG), E9]Glucagon(aa6-29)-NH2]
Glucagon receptor [7]
  IC50: 220 nM

## {PLA}-TC(PEG 5 kDa)EYSKYLDSRRAQDFVQWLMNT-NH2 [[PLA6, C8(5kDaPEG), E9]Glucagon(aa6-29)-NH2]
Glucagon receptor [8]
  IC50(nM) (cAMP, inhibit 0.2 mM Glucagon): 216 nM
Glucagon receptor [7]
  IC50: 948 nM

## {PLA}-TSEYSKYLDSRRAQDFVC(PEG 1.2 kDa)WLMNT-NH2 [[PLA6, E9,C24(1.2 kDaPEG)]Glucagon(aa6-29)-NH2]
Glucagon receptor [8]
  IC50(nM) (cAMP, inhibit 0.2 mM Glucagon): 18 nM
Glucagon receptor [7]
  IC50: 4.7 nM

Source: patent US20120322725A1 (INDIANA UNIVERSITY RESEARCH AND TECHNOLOGY, published 2012)
